Substrate: Nc1nc2c(ncn2[C@@H]2O[C@H](COP(=O)(O)OP(=O)(O)OP(=O)(O)O)[C@@H](O)[C@H]2O)c(=O)[nH]1
Experiment: purified protein
Format: biochemical, Saccharomyces cerevisiae
Details: pH 8.0, 300 mM NaCl, 5 mM MgCl2, 30°C, labelled compound, Snu114 without Prp8

B1: Snu114^72-1008 (isolated) (Saccharomyces cerevisiae S288C) (protein)
chain: KEVEVLMETKNTQSPQTPLVEPVTERTKLQEHTIFTQLKKNIPKTRYNRDYMLSMANIPERIINVGVIGPLHSGKTSLMDLLVIDSHKRIPDMSKNVELGWKPLRYLDNLKQEIDRGLSIKLNGSTLLCTDLESKSRMINFLDAPGHVNFMDETAVALAASDLVLIVIDVVEGVTFVVEQLIKQSIKNNVAMCFVINKLDRLILDLKLPPMDAYLKLNHIIANINSFTKGNVFSPIDNNIIFASTKLGFTFTIKEFVSYYYAHSIPSSKIDDFTTRLWGSVYYHKGNFRTKPFENVEKYPTFVEFILIPLYKIFSYALSMEKDKLKNLLRSNFRVNLSQEALQYDPQPFLKHVLQLIFRQQTGLVDAITRCYQPFELFDNKTAHLSIPGKSTPEGTLWAHVLKTVDYGGAEWSLVRIYSGLLKRGDTVRILDTSQSESRQKRQLHDISKTETSNEDEDEDDETPSCEVEEIGLLGGRYVYPVHEAHKGQIVLIKGISSAYIKSATLYSVKSKEDMKQLKFFKPLDYITEAVFKIVLQPLLPRELPKLLDALNKISKYYPGVIIKVEESGEHVILGNGELYMDCLLYDLRASYAKIEIKISDPLTVFSESCSNESFASIPVSNSISRLGEENLPGLSISVAAEPMDSKMIQDLSRNTLGKGQNCLDIDGIMDNPRKLSKILRTEYGWDSLASRNVWSFYNGNVLINDTLPDEISPELLSKYKEQIIQGFYWAVKEGPLAEEPIYGVQYKLLSISVPSDVNIDVMKSQIIPLMKKACYVGLLTAIPILLEPIYEVDITVHAPLLPIVEELMKKRRGSRIYKTIKVAGTPLLEVRGQVPVIESAGFETDLRLSTNGLGMCQLYFWHKIWRKVPGDVLDKDAFIPKLKPAPINSLSRDFVMKTRRRKGISTGGFMSNDGPTLEKYISAELYAQLRENGLVP
notes: residues 72-1008 (acidic N-terminal region truncated), C-terminal Strep tag (pIDS-C-Strep), synthetic gene, recombinant in insect cells (MultiBac)
In the case of B1, the Km is reported as 578.4 µM and the kcat is reported as 0.001012 s⁻¹.

Source: article PMC7192624
